Laboratory results: patent publication US20240383994A1

The binders below were run against human CD40 (hCD40), full length, on cells (human) (UniProt P25942) (assay: not given).
Sequence of human CD40 (hCD40), full length, on cells (human) (P25942 21-277 limits assumed): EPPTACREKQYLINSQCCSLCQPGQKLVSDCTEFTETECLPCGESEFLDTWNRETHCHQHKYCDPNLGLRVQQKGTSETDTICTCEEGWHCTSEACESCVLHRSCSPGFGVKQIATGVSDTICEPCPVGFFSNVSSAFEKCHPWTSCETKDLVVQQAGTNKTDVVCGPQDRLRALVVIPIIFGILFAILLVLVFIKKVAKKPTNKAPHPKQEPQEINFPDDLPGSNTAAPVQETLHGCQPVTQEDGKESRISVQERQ

Binder	IC50; NF-κB luciferase reporter (RLU), 293T-hCD40-NFκB cells stimulated with human CD40L protein 10 µg/mL [ng/mL]
A01 (antibody, V domains shown) VH: QVQLKESGPGLVAPSQSLSITCTVSGFSLPTSGVHWVRQPPGKGLEWLGVIWAGGDTNYNSALMSRLSISKDNSKSQVFLKMNSLQKDDTAIYYCLGHGHFDVWGAGTTVTVSS VL: DVVMTQTPLSLPVSLGDQASISCRSSQSLVHSSGNTYLQWYLQKPGQSPGLLIYKVSNRFSGVPDRFSGSGSGTDFTLKISRVEAEDLGVYFCSQTTHVPWTFGGGTKLEIK	2.22
A02 (antibody, V domains shown) VH: QVQLKESGPGLVAPSQSLSITCTVSGFSLTSSGVHWVRQPPGKGLEWLGVIWAGGDTSYNSALMSRLSISKDNSKSQVFLKMNSLQTDDTAMYYCLGHGHLDVWGAGTTVTVSS VL: DVVMTQTPLSLPVSLGDQASISCRSSQSLVHSSGNTYLHWYLQKPGQSPGLLIYKVSNRFSGVPDRFSGSGSGTDFTLKISRVEAEDLGVYFCSQTTHVPWTFGGGTKLEIK	2.79
A03 (antibody, V domains shown) VH: DVQLQESGPDRVKPSQSLSLTCTVTGYSITSDYSWHWIRQFPGNKLEWMGYIYSSGHTYYNPSLKSRISFTRDTSKNQFFLQLNSVTTEDTATYYCAIYYYGRSYFDNWGRGTTLTVSS VL: QIVLTQSPAIMSASPGEKVTLTCSASSSVNYMHWYQQKSGTSPKRWIYDTSKLASGVPARFSGSGSGTSYSLTISSMEAEDAATYYCQQWSSNPLTFGAGTKLELK	287
B01 (antibody, V domains shown) VH: QIQLVQSGPELKKPGETVKISCKASGYTFTNYGMNWVKQAPGKGLKWMGWINPYTGEPTYADDFKGRFAFSVETSASTAYLQINNLKNEDTATYFCARKPPFDYWGQGTTLTVSS VL: DIVMTQAAPSVPVTPGESVSISCRSSKSLLHSNGNTYLYWFLQRPGQSPQILIYRVSNLASGVPDRFSGSGSGTAFTLRISRVEAEDVGVYYCMQHVEYPFTFGSGTKLEIK	8.16
B02 (antibody, V domains shown) VH: EVQLQQSGPELVKPGASVKMSCKASGYTFTSYVMYWVKQKPGQGLEWIGYVNPYNDGTNYNEKFKGKATLTSDKSSSTAYMELSSLTSEDSAVYYCARGAMDYWGQGTSVTVSS VL: DIVMTQAAPSVPVTPGESVSISCRSSKSLLHSQGNTYLYWFLQRPGQSPQILIYRVSNLASGVPDRFSGSGSGTAFTLRISRVEAEDVGVYYCMQHVEYPFTFGSGTKLEIK	5.21
B03 (antibody, V domains shown) VH: EVKLVESGGGLVQPGGSLRLSCATSGFTFSDFYMEWVRQPPGKRLEWIAASRDKANDYTTEYSPSVQGRFIVSRDSSQSILYLQMNALRTEDTAIYYCARDVGRSYALDYWGQGTSVTVSS VL: QVVLTQSPAIMSASPGEKVTMTCSASSSVTYMHWYQQKSGTSPKRWIYVTSKLASGVPTRFSGSGSGTSYSLTISSMEAEDAATYYCQQWSRKPPTFGAGTKLELK	16.2

The binders below were run against cynoCD40-mFc (monkey (cyno)) (assay: flow cytometry, blocking of cynoCD40-mFc (2 µg/mL) binding to CHO-K1-cynoCD40L cells).
Sequence of cynoCD40-mFc (monkey (cyno)) (chain, as listed by the source limits assumed, form in doubt): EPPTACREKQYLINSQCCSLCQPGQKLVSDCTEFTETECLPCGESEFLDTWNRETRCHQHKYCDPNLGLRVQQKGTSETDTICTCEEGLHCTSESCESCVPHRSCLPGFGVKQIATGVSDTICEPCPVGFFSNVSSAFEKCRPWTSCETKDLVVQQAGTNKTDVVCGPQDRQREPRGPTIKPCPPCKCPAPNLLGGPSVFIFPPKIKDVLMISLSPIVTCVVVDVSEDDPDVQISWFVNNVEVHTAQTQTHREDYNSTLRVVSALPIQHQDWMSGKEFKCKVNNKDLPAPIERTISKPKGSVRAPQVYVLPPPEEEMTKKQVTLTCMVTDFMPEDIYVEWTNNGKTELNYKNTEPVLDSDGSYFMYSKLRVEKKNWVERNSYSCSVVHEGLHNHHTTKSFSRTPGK

Binder	IC50 [nM]
Chi-A01 (antibody, human IgG4 S228P, kappa, V domains shown) VH: QVQLKESGPGLVAPSQSLSITCTVSGFSLPTSGVHWVRQPPGKGLEWLGVIWAGGDTNYNSALMSRLSISKDNSKSQVFLKMNSLQKDDTAIYYCLGHGHFDVWGAGTTVTVSS VL: DVVMTQTPLSLPVSLGDQASISCRSSQSLVHSSGNTYLQWYLQKPGQSPGLLIYKVSNRFSGVPDRFSGSGSGTDFTLKISRVEAEDLGVYFCSQTTHVPWTFGGGTKLEIKR	25.2
hzA01-3.1 (antibody, human IgG4 S228P, kappa, V domains shown) VH: QVQLQESGPGLVKPSETLSLTCTVSGFSLPTSGVHWIRQPPGKGLEWIGVIWAGGDTNYNPSLKSRVTISKDNSKNQVFLKLSSVTAADTAVYYCLGHGHFDVWGQGTLVTVSS VL: DVVMTQSPLSLPVTLGQPASISCRSSQSLVHSSGNTYLQWYLQRPGQSPGLLIYKVSNRFSGVPDRFSGSGSGTDFTLKISRVEAEDVGVYYCSQTTHVPWTFGQGTKLEIKR	25.5
hzA01-3.3 (antibody, human IgG4 S228P, kappa, V domains shown) VH: QVQLKESGPGLVKPSETLSLTCTVSGFSLPTSGVHWIRQPPGKGLEWIGVIWAGGDTNYNSALKSRVTISKDNSKSQVFLKLSSVTAADTAVYYCLGHGHFDVWGQGTLVTVSS VL: DVVMTQSPLSLPVTLGQPASISCRSSQSLVHSSGNTYLQWYLQRPGQSPGLLIYKVSNRFSGVPDRFSGSGSGTDFTLKISRVEAEDVGVYYCSQTTHVPWTFGQGTKLEIKR	35.8
hzA01-3.4 (antibody, human IgG4 S228P, kappa, V domains shown) VH: QVQLKESGPGLVKPSETLSLTCTVSGFSLPTSGVHWIRQPPGKGLEWIGVIWAGGDTNYNSALMSRVTISKDNSKSQVFLKMSSVTAADTAVYYCLGHGHFDVWGQGTLVTVSS VL: DVVMTQSPLSLPVTLGQPASISCRSSQSLVHSSGNTYLQWYLQRPGQSPGLLIYKVSNRFSGVPDRFSGSGSGTDFTLKISRVEAEDVGVYYCSQTTHVPWTFGQGTKLEIKR	22.9
